Positions count from the first letter of the chain named. One block for each molecule: values may come before it.
Legend:
human CD20 [1] = biological target: T1, human CD20 (human, UniProt P11836); assay: flow cytometry, DHL-4 cells, saturating antibody
T1 sequence: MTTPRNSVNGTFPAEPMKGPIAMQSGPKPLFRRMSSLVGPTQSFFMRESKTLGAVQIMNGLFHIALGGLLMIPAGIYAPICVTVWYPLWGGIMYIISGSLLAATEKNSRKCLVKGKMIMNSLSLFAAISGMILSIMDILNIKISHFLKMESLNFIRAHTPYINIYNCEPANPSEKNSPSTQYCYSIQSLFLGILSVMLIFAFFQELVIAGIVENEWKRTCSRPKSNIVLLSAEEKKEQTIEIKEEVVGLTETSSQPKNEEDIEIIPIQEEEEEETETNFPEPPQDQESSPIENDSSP

human CD20 [2] = biological target: T1, human CD20; assay: flow cytometry, human blood B cells, saturating antibody
human CD20 [3] = biological target: T1, human CD20; assay: flow cytometry, Raji cells, saturating antibody
human CD20 [4] = biological target: T1, human CD20; assay: flow cytometry, BJAB cells, saturating antibody
mouse CD20 [5] = biological target: T2, mouse CD20 (mouse, UniProt P19437); assay: flow cytometry, spleen CD19+ B cells, control staining
T2 sequence: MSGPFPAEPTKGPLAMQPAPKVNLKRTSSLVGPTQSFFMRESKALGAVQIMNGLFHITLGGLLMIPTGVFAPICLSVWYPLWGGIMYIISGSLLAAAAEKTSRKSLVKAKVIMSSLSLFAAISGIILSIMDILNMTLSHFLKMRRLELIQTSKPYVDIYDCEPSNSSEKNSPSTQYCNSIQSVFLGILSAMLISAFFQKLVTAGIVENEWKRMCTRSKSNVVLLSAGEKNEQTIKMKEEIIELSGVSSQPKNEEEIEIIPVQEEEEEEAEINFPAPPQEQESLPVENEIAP

mouse CD20 [6] = biological target: T2, mouse CD20; assay: flow cytometry, spleen CD19+ B cells, 0.5 µg/mL antibody

mean linear fluorescence intensity (human CD20 [1]): 486
mean linear fluorescence intensity (human CD20 [2]): 277
mean linear fluorescence intensity (human CD20 [3]): 944
mean linear fluorescence intensity (human CD20 [4]): 700
Molecule: B1 anti-CD20 monoclonal antibody

mean linear fluorescence intensity (mouse CD20 [5]): < 6
Molecule: isotype-matched control monoclonal antibodies

mean linear fluorescence intensity (human CD20 [1]): 169
mean linear fluorescence intensity (human CD20 [2]): 104
mean linear fluorescence intensity (human CD20 [3]): 455
mean linear fluorescence intensity (human CD20 [4]): 386
Molecule: 1F5 anti-CD20 monoclonal antibody

mean linear fluorescence intensity (human CD20 [1]): 162
mean linear fluorescence intensity (human CD20 [2]): 112
mean linear fluorescence intensity (human CD20 [3]): 438
mean linear fluorescence intensity (human CD20 [4]): 377
Molecule: B9E9 anti-CD20 monoclonal antibody

mean linear fluorescence intensity (human CD20 [1]): 765
mean linear fluorescence intensity (human CD20 [2]): 469
mean linear fluorescence intensity (human CD20 [3]): 2220
mean linear fluorescence intensity (human CD20 [4]): 1200
B1: HB20-3 monoclonal antibody (antibody, V domains shown)
VH: EVQLQESGAELVKPGASVKMSCKASGFTFTNYNMHWLKQTPGQGLEWIGAIYPENGDTSYNQKFKGKATLTADKASSTAYMHLSSLTSEDSAVYFCARFYYYGSYYGAMDYWGQGTSVTVSS
VL: MWGSVFNFSIVGARCDIQMTQSPASLSASVGETVTITCRASGNIHNYLAWYQQKQGKSPQLLVYNAKTLADGVPSRFSGSGSGTQFSLKINSLQPEDFGSYYCQHFWSTPWTFGGGTKLEIKR

mean linear fluorescence intensity (human CD20 [1]): 578
mean linear fluorescence intensity (human CD20 [2]): 397
mean linear fluorescence intensity (human CD20 [3]): 1580
mean linear fluorescence intensity (human CD20 [4]): 1100
B2: HB20-4 monoclonal antibody (antibody, V domains shown)
VH: B1 VH with L37V, K63R, A75S, S91T, M109L
VL: B1 VL with N43S, Q55L, T109I

B cell reactivity (mean linear fluorescence intensity) (mouse CD20 [6]): 209
B3: MB20-2 monoclonal antibody (antibody, V domains shown)
VH: EVQLQESGPELVKPGASVKISCKASGYMFTDYYIKWVKQSHGKSLEWIGDINPNNGDTIYNQKFKGKATLTVDKSSNTAYMDLRSLTSEDSAVYYCARERFAYWGQGTLVTVSA
VL: EIVLTQSPTTMAASPGEKITITCSVSSSIRSNYLHWYQQKPGFSPKLLIYRTSNLASGVPARFSGSGSGTSYSLTVATMEAEDVATYYCQQGSSIPLTFGAGTKLELKR

B cell reactivity (mean linear fluorescence intensity) (mouse CD20 [6]): 240
B4: MB20-8 monoclonal antibody (antibody, V domains shown)
VH: B3 VH with E10D, M28T, I34M, E46D, T58I, K65E, N77S, D82E
VL: B3 VL with S28N, V76I, A77G, E80K

B cell reactivity (mean linear fluorescence intensity) (mouse CD20 [6]): 166
B5: MB20-14 monoclonal antibody (antibody, V domains shown)
VH: B3 VH with S85I
VL: B3 VL

B cell reactivity (mean linear fluorescence intensity) (mouse CD20 [6]): 317
B6: MB20-10 monoclonal antibody (antibody, V domains shown)
VH: B3 VH with E10D, M28T, I34M, E46D, T58I, K65E, N77S, D82E
VL: B3 VL with S28N, V76I, A77G, E80K

B cell reactivity (mean linear fluorescence intensity) (mouse CD20 [6]): 525
B7: MB20-7 monoclonal antibody (antibody, V domains shown)
VH: B3 VH with E10D, I34M, I59T, K65E, N77S, D82E
VL: B3 VL with I2L, M11K, K40R, V76I, A77G, I95L

B cell reactivity (mean linear fluorescence intensity) (mouse CD20 [6]): 729
B8: MB20-18 monoclonal antibody (antibody, V domains shown)
VH: B3 VH with P9L, E10D, M28T, I34M, E46D, T58I, K65E, N77S, D82E
VL: SIVMTQTPKFLLVSTGDRVTITCKASQTVTNDLAWYQQKPGQSPKLLIYYASNRYTGVPDRFTGSGYGTDFTFTINTVQAEDLAVYFCQQDYSSPLTFGAGTKLELKR

mean linear fluorescence intensity (human CD20 [1]): 514
mean linear fluorescence intensity (human CD20 [2]): 227
mean linear fluorescence intensity (human CD20 [3]): 1350
mean linear fluorescence intensity (human CD20 [4]): 849
B9: HB20-25 monoclonal antibody (antibody, V domains shown)
VH: EVQLQESGAELVKPGASVKMSCKASGFRFTNYNLHWVKQTPGQGLEWIGAIYPGNGETSYNQKFKGKATLTADKSSSTAYMQLRSLTSGDSAVYYCARFYYYGSSYGAMDYWGQGTSVTVSS
VL: MWGSVFNFSIVDARCDIQMTQSPASLSVSVGETVTITCRASENIYSNLAWYQQKQGKSPQLLVYAATNLADGVPSRFSGSGSGTQYSLKINSLQSEDFGSYYCQHFWGIPWTFGGGTKLEIKR

B cell reactivity (mean linear fluorescence intensity) (mouse CD20 [6]): 69
B10: MB20-1 monoclonal antibody (antibody, V domains shown)
VH: EVQLQESGGGLVQPGGSLKLSCAASGFTFSDYGMAWVRQAPRKGPEWVAFISNLAYSIYYADTVTGRFTISRENAKNTLYLEMSSLRSEDTAMYFCTRTGYYALDYWGQGTSVTVSS
VL: NIMMTQSPSSLAVSAGEKVTMRCKSSQSVLYSSKRKNYLAWYQQKPGKSPTLLIYWASTRESGVPDRFTGSGSGTDFTLTITSVQAEDLAVYYCHQYLSSFTFGGGTKLEIKR

B cell reactivity (mean linear fluorescence intensity) (mouse CD20 [6]): 603
B11: MB20-13 monoclonal antibody (antibody, V domains shown)
VH: B10 VH
VL: B3 VL with T5A, M11T, V25A, R30T, V76I, A77G, I95K, P96T

From patent US9416187B2, “CD-20 specific antibodies and methods of employing same” (Duke University, dated 2016)
